Patent publication US20160200782A1 (MOERAE MATRIX, published 2016)

T1: Flt1(h) (human, UniProt P17948 781-1338, limits assumed)
T1 sequence (looked up): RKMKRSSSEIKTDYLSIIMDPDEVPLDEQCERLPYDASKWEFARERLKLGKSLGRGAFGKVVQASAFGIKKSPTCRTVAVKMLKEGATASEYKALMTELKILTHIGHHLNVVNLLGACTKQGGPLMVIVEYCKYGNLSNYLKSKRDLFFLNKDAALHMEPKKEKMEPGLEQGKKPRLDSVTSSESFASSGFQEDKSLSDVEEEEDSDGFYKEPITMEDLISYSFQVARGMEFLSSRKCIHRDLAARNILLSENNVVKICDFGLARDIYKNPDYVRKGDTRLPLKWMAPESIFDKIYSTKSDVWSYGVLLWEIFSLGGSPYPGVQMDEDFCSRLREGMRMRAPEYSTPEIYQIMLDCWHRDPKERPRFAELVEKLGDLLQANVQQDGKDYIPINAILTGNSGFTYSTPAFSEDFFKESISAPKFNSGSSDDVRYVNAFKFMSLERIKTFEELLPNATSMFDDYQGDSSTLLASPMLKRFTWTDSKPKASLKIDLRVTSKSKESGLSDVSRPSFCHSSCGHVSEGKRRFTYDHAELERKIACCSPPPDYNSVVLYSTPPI

T2: ALK4(h) (human, UniProt P36896 150-505, limits assumed)
T2 sequence (looked up): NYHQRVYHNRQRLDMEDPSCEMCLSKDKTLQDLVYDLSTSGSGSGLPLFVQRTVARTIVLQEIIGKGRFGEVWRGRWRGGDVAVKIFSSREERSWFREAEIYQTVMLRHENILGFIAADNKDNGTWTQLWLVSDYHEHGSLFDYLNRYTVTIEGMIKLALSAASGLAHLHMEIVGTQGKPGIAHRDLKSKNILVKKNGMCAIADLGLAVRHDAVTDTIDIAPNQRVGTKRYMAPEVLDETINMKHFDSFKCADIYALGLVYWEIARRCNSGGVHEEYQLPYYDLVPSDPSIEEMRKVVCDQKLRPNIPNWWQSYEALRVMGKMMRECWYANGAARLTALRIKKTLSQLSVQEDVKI

T3: DDR2(h) (human, UniProt Q16832 422-855, limits assumed)
T3 sequence (looked up): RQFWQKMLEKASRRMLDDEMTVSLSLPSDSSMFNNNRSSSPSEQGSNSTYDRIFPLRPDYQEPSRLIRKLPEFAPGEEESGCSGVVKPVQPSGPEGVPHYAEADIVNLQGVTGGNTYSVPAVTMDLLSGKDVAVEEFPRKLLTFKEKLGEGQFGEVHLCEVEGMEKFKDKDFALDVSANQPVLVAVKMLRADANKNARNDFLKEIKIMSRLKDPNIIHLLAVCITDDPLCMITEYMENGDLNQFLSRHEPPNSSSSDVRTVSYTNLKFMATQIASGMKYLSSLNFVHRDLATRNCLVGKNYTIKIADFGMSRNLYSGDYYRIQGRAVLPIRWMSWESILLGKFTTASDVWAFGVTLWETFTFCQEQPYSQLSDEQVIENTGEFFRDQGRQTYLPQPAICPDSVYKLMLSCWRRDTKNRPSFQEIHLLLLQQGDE

T4: Ret(V804L)(h) (human, UniProt P07949 658-1114, limits assumed)
T4 sequence (looked up): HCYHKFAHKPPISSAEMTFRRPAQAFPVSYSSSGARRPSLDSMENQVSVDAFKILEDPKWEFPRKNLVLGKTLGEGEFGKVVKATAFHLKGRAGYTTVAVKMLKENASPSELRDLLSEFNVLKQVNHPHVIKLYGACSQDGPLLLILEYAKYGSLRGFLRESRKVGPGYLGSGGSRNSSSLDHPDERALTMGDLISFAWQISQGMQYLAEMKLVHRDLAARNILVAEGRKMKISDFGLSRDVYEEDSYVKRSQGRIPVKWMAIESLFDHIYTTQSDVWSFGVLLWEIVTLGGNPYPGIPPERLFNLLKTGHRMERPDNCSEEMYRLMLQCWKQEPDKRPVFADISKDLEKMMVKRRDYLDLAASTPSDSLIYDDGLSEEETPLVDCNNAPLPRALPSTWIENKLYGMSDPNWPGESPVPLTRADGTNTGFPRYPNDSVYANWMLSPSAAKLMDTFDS

T5: PDK1(h) (human, UniProt O15530 1-556, limits assumed)
T5 sequence (looked up): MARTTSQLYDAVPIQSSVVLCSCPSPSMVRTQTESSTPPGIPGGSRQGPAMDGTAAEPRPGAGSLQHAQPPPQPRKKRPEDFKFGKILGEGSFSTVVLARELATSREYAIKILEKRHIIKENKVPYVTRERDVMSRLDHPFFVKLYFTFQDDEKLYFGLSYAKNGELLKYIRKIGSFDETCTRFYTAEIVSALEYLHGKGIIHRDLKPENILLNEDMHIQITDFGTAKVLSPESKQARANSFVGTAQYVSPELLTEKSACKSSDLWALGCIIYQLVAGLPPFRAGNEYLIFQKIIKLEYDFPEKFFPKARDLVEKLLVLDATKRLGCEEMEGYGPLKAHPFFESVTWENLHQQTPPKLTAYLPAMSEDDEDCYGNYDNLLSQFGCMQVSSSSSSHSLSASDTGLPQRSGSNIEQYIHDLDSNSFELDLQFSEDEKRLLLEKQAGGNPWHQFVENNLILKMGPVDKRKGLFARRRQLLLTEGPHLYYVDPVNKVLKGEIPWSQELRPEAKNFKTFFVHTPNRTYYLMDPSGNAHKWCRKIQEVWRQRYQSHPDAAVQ

B1: MMI-0300 (peptide)
peptide: FAKLAARLYRKALARQLGVAA
B2: MMI-0400 (peptide)
peptide: KAFAKLAARLYRKALARQLGVAA

Experiments:
Experiment in all cases: cell-based or functional assay
IRAK1(h) = IRAK1(h) (human, UniProt P51617 194-712, limits assumed)
Sequence of IRAK1(h) (P51617 194-712 limits assumed): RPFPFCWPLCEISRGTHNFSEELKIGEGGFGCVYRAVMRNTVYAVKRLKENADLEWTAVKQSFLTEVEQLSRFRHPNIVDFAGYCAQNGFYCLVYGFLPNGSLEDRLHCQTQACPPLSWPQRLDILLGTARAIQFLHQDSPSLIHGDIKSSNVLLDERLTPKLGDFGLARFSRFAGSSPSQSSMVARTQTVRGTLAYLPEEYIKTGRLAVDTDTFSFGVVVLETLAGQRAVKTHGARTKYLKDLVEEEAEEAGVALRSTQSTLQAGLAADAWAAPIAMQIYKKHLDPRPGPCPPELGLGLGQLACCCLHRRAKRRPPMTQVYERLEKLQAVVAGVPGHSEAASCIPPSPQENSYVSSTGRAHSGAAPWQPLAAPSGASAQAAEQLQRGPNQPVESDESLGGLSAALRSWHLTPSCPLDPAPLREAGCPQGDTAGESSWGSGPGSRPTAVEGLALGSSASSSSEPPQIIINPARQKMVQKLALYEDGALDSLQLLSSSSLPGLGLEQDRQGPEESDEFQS

Flt1(h) = biological target: T1, Flt1(h)
ALK4(h) = biological target: T2, ALK4(h)
DDR2(h) = biological target: T3, DDR2(h)
Ret(V804L)(h) = biological target: T4, Ret(V804L)(h)
PDK1(h) = biological target: T5, PDK1(h)
Tie2(Y897S)(h) = Tie2(Y897S)(h) (human, UniProt Q02763 771-1124, limits assumed)
Sequence of Tie2(Y897S)(h) (Q02763 771-1124 Y897S limits assumed): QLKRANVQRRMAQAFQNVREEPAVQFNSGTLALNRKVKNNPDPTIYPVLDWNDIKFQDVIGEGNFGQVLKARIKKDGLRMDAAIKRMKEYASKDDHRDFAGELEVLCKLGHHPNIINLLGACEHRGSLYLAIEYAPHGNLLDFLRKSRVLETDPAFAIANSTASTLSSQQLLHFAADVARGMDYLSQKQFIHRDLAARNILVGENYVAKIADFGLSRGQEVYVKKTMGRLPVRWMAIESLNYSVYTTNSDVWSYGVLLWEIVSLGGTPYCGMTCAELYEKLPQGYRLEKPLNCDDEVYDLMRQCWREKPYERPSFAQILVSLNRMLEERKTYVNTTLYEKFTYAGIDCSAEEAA

NEK6(h) = NEK6(h) (human, UniProt Q9HC98 1-313)
Sequence of NEK6(h) (Q9HC98 whole entry): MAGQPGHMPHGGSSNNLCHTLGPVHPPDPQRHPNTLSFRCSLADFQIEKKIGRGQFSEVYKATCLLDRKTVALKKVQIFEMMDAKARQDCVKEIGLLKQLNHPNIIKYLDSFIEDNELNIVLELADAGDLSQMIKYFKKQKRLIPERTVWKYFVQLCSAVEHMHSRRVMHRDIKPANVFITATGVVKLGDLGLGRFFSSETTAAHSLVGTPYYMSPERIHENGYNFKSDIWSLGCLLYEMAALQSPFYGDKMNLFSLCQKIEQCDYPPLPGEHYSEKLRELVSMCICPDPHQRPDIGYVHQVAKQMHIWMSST
Also: test concentration or dose not given here.

Binder	% activity (IRAK1(h)) [%]	% activity (Flt1(h)) [%]	% activity (ALK4(h)) [%]	% activity (DDR2(h)) [%]	% activity (Ret(V804L)(h)) [%]	% activity (PDK1(h)) [%]	% activity (Tie2(Y897S)(h)) [%]	% activity (NEK6(h)) [%]
B1	95	69	140	94	79	135	83	82
B2	93	48	130	95	73	159	87	85
